The text below walks through data of article PMC10615782.

pKd: −log10 of the molar value.

The target of this test is Chikungunya virus-like particles (strain 37997) (chikungunya virus) (UniProt Q8JUX5). As to the kind of experiment: BLI.

“Monovalent mouse MXRA8 cleaved from the Fc fusion (from UniProt Q9DBV4 22-336) (domain or fragment)”: the pKd was 7.17.
